Laboratory results published in patent publication US20190203224A1.

Assays:
[1] = target: Brush border membrane vesicles (BBMV) prepared from midguts of third instar western corn rootworm (Diabrotica virgifera virgifera LeConte) larvae; putative receptor(s) on the BBMV (Diabrotica virgifera virgifera)
[2] = target: Brush border membrane vesicles (BBMV) prepared from midguts of third instar western corn rootworm (Diabrotica virgifera virgifera LeConte) larvae; putative receptor(s) on the BBMV (Diabrotica virgifera virgifera); remark: listed apart in the source

Row | Substance | Kd [1] | Bmax (binding site concentration) (pmole/ug BBMV) [2]
1 | Cry3Aa trypsin core (trypsin-truncated Cry3Aa core protein) (from UniProt P0A379 159-644) | 0.024 µM | 146
2 | Cry35Ab1 chymotrypsin core (chymotrypsin-truncated Cry35Ab1 core protein) (from UniProt Q939S9 1-354) | 0.00231 µM | 31.7
